Key:
O=C(O)CC(=O)C(=O)O = test: purified protein; details: 0.05 M NaCl, 0.3 mM NADH, 32.5 mM Tris/HCl pH 7.5
[1] = system: O=C(O)CC(C(=O)O)C(O)C(=O)O; test: purified protein; details: 0.05 M NaCl, 0.8 mM NADP+, 1 mM MgCl2, 32.5 mM Tris/HCl pH 7.5, concentration as DL-isocitrate, text b40 prints 0.010 mM, the table's Vmax/Km fits 0.019

Substance	Km (O=C(O)CC(=O)C(=O)O) [µM]	Vmax (O=C(O)CC(=O)C(=O)O) [µmol/min/mg]	Km [1] [µM]	Vmax [1] [µmol/min/mg]
MDHS.salinarum (Schmidingerothrix salinarum)	38	2060	–	–
ICDHS.salinarum (Schmidingerothrix salinarum)	–	–	19	6.8
